Data reported in paper PMC4207522, “Interaction of Omega, Sigma, and Theta glutathione transferases with p38b mitogenactivated protein kinase from the fruit fly, Drosophila melanogaster” (Journal of Insect Science, 2014).

Columns and labels:
[1] = biological target: p38b mitogen-activated protein kinase (Drosophila melanogaster) (UniProt O61443)
[2] = biological target: p38b mitogen-activated protein kinase (Drosophila melanogaster) (UniProt O61443); remark: listed apart in the source
[3] = biological target: p38b mitogen-activated protein kinase (Drosophila melanogaster) (UniProt O61443); remark: listed apart in the source

UniProt O61443, sequence (O61443 whole entry): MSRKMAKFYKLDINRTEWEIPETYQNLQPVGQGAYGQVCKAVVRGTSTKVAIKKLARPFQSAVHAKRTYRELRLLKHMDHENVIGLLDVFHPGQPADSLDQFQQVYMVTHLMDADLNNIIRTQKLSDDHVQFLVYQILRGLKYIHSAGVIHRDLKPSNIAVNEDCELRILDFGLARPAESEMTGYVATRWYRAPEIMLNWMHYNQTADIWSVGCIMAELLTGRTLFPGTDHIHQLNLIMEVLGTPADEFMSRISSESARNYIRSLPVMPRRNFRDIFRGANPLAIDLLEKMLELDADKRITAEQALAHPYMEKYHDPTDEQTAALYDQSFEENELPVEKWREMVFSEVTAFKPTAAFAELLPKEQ

Row | p38b kinase activity toward Jun with the GST at 1:1 molar ratio (ADP Quest assay), fold against the reaction without GST [1] [fold] | GST conjugating activity toward CDNB after 5 min with p38b at 1:1 molar ratio, percent increase against no p38b [2] [%] | GST thiol transferase activity toward HED after 5 min with p38b at 1:1 molar ratio, percent change (a decrease by the discussion) against no p38b [2] [%] | p38b kinase activity toward ATF2 with the GST at 1:1 molar ratio (ADP Quest assay), fold against the reaction without GST [1] [fold] | p38b kinase activity toward ATF2 with DmGSTT3b, fold against p38b with DmGSTT3a [3] [fold] | p38b kinase activity toward Jun with DmGSTT3b, fold against p38b with DmGSTT3a [3] [fold] | GST conjugating activity toward CDNB after 5 min with p38b at 1:1 molar ratio, percent decrease against no p38b [2] [%] | Substance
1 | – | 26 | – | – | – | – | – | DmGSTO2a (enzyme)
2 | 4.3 | 14 | – | 3.1 | – | – | – | DmGSTT2 (enzyme)

Continued, substance first:

Row | Substance | p38b kinase activity toward Jun with the GST at 1:1 molar ratio (ADP Quest assay), fold against the reaction without GST [1] [fold] | GST conjugating activity toward CDNB after 5 min with p38b at 1:1 molar ratio, percent increase against no p38b [2] [%] | GST thiol transferase activity toward HED after 5 min with p38b at 1:1 molar ratio, percent change (a decrease by the discussion) against no p38b [2] [%] | p38b kinase activity toward ATF2 with the GST at 1:1 molar ratio (ADP Quest assay), fold against the reaction without GST [1] [fold] | p38b kinase activity toward ATF2 with DmGSTT3b, fold against p38b with DmGSTT3a [3] [fold] | p38b kinase activity toward Jun with DmGSTT3b, fold against p38b with DmGSTT3a [3] [fold] | GST conjugating activity toward CDNB after 5 min with p38b at 1:1 molar ratio, percent decrease against no p38b [2] [%]
3 | DmGSTO1 (enzyme) | 2 | 58 | – | – | – | – | –
4 | DmGSTO3 (enzyme) | 1.6 | – | 14 | – | – | – | –
5 | DmGSTT3b (enzyme) | 7.4 | – | – | 3.4 | 3.1 | 6.9 | 84
